The values below come from patent US20210040189A1 (Amgen, published 2021).

One test addresses T1, huDkk4 (human, UniProt Q9UBT3 19-224, limits assumed).
T1 sequence (looked up): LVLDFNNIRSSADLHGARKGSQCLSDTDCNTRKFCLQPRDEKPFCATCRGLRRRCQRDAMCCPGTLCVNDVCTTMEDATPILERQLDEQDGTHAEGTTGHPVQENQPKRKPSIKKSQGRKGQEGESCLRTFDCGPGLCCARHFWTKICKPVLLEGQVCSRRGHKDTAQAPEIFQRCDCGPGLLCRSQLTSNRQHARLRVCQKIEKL
Briefly: BiaCore. (In SPR one partner is held on a chip, and binding of the other changes the refractive index at the surface.)

For a further test, the target named is T2, CNBr1 (human, UniProt O94907 207-266).
T2 construct: Two peptides held together by 5 disulfide bonds; also called CNBr fragment of hDKK1 representing disulfide domain D2; not shown: added C-terminal flag peptide (positions 267-274)
T2 sequence 1: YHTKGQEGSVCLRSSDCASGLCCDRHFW
T2 sequence 2: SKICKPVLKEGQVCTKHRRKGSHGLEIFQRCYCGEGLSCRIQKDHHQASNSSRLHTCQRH
Briefly: BiaCore.

The target in the next test is T3, T2 (human).
T3 construct: Five peptides held together by the five disulfide bonds of D1; from trypsin digestion of HuDKK1 alone; also called tryptic D1 fragment T2
T3 chain 1: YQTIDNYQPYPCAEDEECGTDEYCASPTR
T3 chain 2: GGDAGVQICLACR
T3 chain 3: CMR
T3 chain 4: HAMCCPGNYCK
T3 chain 5: NGICVSSDQNHFR
Briefly: BiaCore.

In the next test the target is T4, T3 (human).
T4 construct: a separate HPLC peak; also called tryptic D1 fragment T3
T4 chain 1: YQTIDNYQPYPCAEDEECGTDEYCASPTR
T4 chain 2: GGDAGVQICLACR
T4 chain 3: CMR
T4 chain 4: HAMCCPGNYCK
T4 chain 5: NGICVSSDQNHFR
Briefly: BiaCore.

Another test deals with T5, AspN1 (human).
T5 construct: Two peptides held together by five disulfide bonds in D1
T5 chain 1: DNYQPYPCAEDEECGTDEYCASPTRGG
T5 chain 2: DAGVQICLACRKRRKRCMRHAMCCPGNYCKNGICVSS
Put plainly: BiaCore.

In another test the target is T6, AspN2 (human).
T6 construct: a separate HPLC peak
T6 chain 1: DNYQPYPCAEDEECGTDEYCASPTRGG
T6 chain 2: T5 chain 2
Briefly: BiaCore.

Test [1] addresses T7, human DKK1 (human, UniProt O94907 32-266).
T7 construct: also called huDKK1; hDKK1
T7 sequence: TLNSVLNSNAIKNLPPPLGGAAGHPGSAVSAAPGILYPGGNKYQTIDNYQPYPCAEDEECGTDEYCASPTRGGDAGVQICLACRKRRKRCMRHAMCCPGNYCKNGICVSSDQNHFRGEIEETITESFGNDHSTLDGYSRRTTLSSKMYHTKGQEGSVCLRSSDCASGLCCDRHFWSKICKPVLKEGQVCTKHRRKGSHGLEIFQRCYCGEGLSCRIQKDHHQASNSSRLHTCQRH
Put plainly: BiaCore 2000.
Description: BiaCore allowed us to determine the kd of the selected antibodies.

In test [2] the target is T7, human DKK1. Put plainly: cell-based or functional assay.
For another test, the target named is T8, T4 (human).
T8 construct: also called tryptic D1 peptide T4
T8 chain: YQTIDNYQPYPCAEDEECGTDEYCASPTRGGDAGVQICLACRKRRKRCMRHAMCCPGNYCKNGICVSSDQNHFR
Put plainly: BiaCore, competition with surface-bound DKK1.

Test [3] concerns the target T7, human DKK1. Briefly: KinExA 3000 equilibrium binding in solution. The protocol:
(§1) Accordingly, the affinity of several of these antibodies to DKK1 was further assessed by an equilibrium binding analysis using the more sensitive KinExAtm 3000. For these measurements, Reacti-Gel 6× beads (Pierce, Rockford, Ill.) were pre-coated with human, cynomologous or mouse DKK1 and blocked with BSA. One hundred pM, 300 pM, or 1000 pM of the antibody was mixed with various concentrations of human, mouse or cyno DKK1, ranging in concentration from 1 pM to 50 nM, and equilibrated at room temperature for 8 hours. The mixtures were then passed over the DKK1-coated beads. The amount of bead-bound anti-DKK1 antibody was quantified using goat anti-human-IgG antibody labeled with a fluorescent tag (Cy5; Jackson Immuno Research, West Grove, Pa.). The amount of fluorescent signal measured was proportional to the concentration of free anti-DKK1 antibody in each reaction mixture at equilibrium. The dissociation equilibrium constant (Kd) was obtained from nonlinear regression of the competition curves using a dual-curve one-site homogeneous binding model using the KinExA software.
Background: Kinetic exclusion samples the free partner from a solution-phase mixture.

Another test has as its target T9, mouse DKK1 (mouse, UniProt O54908 32-272).
T9 construct: also called murine DKK1
T9 sequence: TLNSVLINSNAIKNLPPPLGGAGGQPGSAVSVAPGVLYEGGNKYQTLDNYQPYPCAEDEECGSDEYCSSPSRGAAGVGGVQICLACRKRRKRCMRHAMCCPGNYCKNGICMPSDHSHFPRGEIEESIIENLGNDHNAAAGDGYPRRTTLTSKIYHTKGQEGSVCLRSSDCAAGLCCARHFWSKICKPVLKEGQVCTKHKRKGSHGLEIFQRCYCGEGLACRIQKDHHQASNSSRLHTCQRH
Put plainly: KinExA 3000 equilibrium binding in solution. The procedure: as §1

B1: 5.25.1 (antibody, V domains shown)
VH: QVQLVQSGAEVKKPGASVKVSCKASGYTFTSYDINWVRQATGQGLEWMGWMDPNSGNTGYAQKFQGRVTMTRNTSISTAFMELSSLRSEDTAVYYCARTDYFYFGMDVWGQGTTVTVSS
VL: DIQMTQSPSSLSASVGDRVTITCQASQDISKDLNWYQQKPGKAPRLLIYDASNLETGVPSRFSGSGSGTDFTFTISSLQPEDIATFYCQQYDHLPIAFGQGTRLEIK
notes: Fully human hybridoma IgG, kappa (Vk)
Usually koff stands for a measure of how fast the partners let go of each other. For orientation: Kd means a measure of binding affinity in units of concentration. Read a high Kd as weaker binding. With B1, the binding result in the test with huDkk4 is recorded as “no binding”; in the test with CNBr1 it was “no binding”; with T2 it was “no binding”; in the test with T3 it was “no binding”; in the test with AspN1, “binds”; with AspN2, “binds”. Also, the binding result in the test with T4 is recorded as “binds”. Moreover, the koff in the test with human DKK1 [1] is less than 2e-05 s⁻¹. In addition, the “ST2 EC50” value in the test with human DKK1 [2] came to 5.96 nM. Besides, in the test with human DKK1 [2], the “TCF EC50” value worked out at 1.88 nM. The Kd in the test with human DKK1 [3] is 3 pM; with mouse DKK1 it was 0.15 nM.
